In US20200172619A1 (UNIVERSIT T STUTTGART, published 2020):

B1: 13.7N-CD3N-hFc1k (bispecific antibody)
chain 1: HVQLVQSGAEVKKPGSSVKVSCKASGYTFTDFYINWVRQAPGQGLEWIGEIVPSQGEAKYNDKFKARVTITADKSTSTAYMELSSLRSEDTAVYYCARWDFLDYWGQGTTVTVSSGGGGSGGGGSGGGGSDVQMTQSPSSLSASVGDRVTITCRSSQSLLHSNGNTYLHWYQQKPGKAPKLLIYTVSNRFSGVPSRFSGSGSGTDFTLTISSLQPEDFATYYCSQSTHVPYTFGGGTKVEIKAAADKTHTCPPCPAPPVAGPSVFLFPPKPKDTLMISRTPEVTCVVVDVSHEDPEVKFNWYVDGVEVHNAKTKPREEQYNSTYRVVSVLTVLHQDWLNGKEYKCKVSNKGLPSSIEKTISKAKGQPREPSVFPLAPSSKSTSGGTAALGCLVKDYFPSDIAVEWESGALTSGVHTFPAVLQSSGLYSLSSVVTVPSSSLGTQTYSCSVMHEALHNHYTQKSVEPKSC
chain 2: DIQMTQSPSSLSASVGDRVTITCRASQDIRNYLNWYQQKPGKAPKLLIYYTSRLHSGVPSRFSGSGSGTDFTFTISSLQPEDIATYYCQQGNTLPWTFGQGTKLEIKRGGGGSGGGGSGGGGSQVQLVQSGAEVKKPGSSVKVSCKASGGTFSGYTMNWVRQAPGQGLEWMGLINPYKGVSTYNGKFKDRVTITADKSTSTAYMELSSLRSEDTAVYYCARSGYYGDSDWYFDVWGQGTLVTVSSSGGGSGGGGSDKTHTCPPCPAPPVAGPSVFLFPPKPKDTLMISRTPEVTCVVVDVSHEDPEVKFNWYVDGVEVHNAKTKPREEQYNSTYRVVSVLTVLHQDWLNGKEYKCKVSNKGLPSSIEKTISKAKGQPREPSVFIFPPSDEQLKSGTASVVCLVNNFYPRDIAVEWEVDNALQSGNSQESVTEQDSKDSTYSLSSTLTLSKADYEKHKVYSCSVMHEALHNHYTQKSFNRGECGGGGSGGGGSGGGGSGTGGSGG
notes: also called scFv13.7-CD3-Hinge-Fc1k
B2: Fv13.7x-Fc1k (Fc fusion)
chain 1: HVQLVQSGAEVKKPGSSVKVSCKASGYTFTDFYINWVRQAPGQGLEWIGEIVPSQGEAKYNDKFKARVTITADKSTSTAYMELSSLRSEDTAVYYCARWDFLDYWGQGTTVTVSSGTGGGSGPSVFLFPPKPKDTLMISRTPEVTCVVVDVSHEDPEVKFNWYVDGVEVHNAKTKPREEQYNSTYRVVSVLTVLHQDWLNGKEYKCKVSNKGLPSSIEKTISKAKGQPREPSVFIFPPSDEQLKSGTASVVCLVNNFYPRDIAVEWEVDNALQSGNSQESVTEQDSKDSTYSLSSTLTLSKADYEKHKVYSCSVMHEALHNHYTQKSFNRGEC
chain 2: DVQMTQSPSSLSASVGDRVTITCRSSQSLLHSNGNTYLHWYQQKPGKAPKLLIYTVSNRFSGVPSRFSGSGSGTDFTLTISSLQPEDFATYYCSQSTHVPYTFGGGTKVEIKGTGGGSGPSVFLFPPKPKDTLMISRTPEVTCVVVDVSHEDPEVKFNWYVDGVEVHNAKTKPREEQYNSTYRVVSVLTVLHQDWLNGKEYKCKVSNKGLPSSIEKTISKAKGQPREPSVFPLAPSSKSTSGGTAALGCLVKDYFPSDIAVEWESGALTSGVHTFPAVLQSSGLYSLSSVVTVPSSSLGTQTYSCSVMHEALHNHYTQKSVEPKSC
notes: CH2 carries A327G, A330S and P331S (EU numbering)

What was measured:
[1] = molecular target: T1, TNFR1 on the surface of cells (HT1080, HeLa, Kym-1) (human, UniProt P19438 30-455); assay: cell-based or functional assay
T1 sequence (looked up): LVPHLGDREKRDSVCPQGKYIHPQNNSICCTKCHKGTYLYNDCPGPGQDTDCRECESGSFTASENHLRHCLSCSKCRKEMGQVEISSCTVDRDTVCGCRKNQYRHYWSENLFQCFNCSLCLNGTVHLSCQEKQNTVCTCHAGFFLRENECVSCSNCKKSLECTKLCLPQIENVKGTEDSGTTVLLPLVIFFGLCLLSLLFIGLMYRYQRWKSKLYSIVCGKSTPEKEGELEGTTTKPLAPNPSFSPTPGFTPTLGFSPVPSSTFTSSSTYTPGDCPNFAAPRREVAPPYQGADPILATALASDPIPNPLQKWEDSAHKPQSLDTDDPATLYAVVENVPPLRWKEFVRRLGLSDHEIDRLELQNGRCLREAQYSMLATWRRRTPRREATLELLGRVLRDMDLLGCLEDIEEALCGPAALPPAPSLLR

[2] = molecular target: T2, CD3 on the surface of CD3-transfected Jurkat cells; assay: flow cytometry on CD3-transfected Jurkat cells
T2 construct: whole, on cells; also called CD3 expressing Jurkat cells
Experimental: (§1) Cells were detached and transferred to a 96 well microtiter plate at a concentration of 100.000-250.000 per well in 100 μl PBA (2% FCS, 0.2% NaN3 in sterile PBS).

[3] = molecular target: T3, human TNFR1-Fc fusion protein (human, UniProt P19438 30-211); assay: ELISA, human TNFR1-Fc fusion protein
T3 construct: Provided by Baliopharm AG; Coated at 1 ug/ml in the ELISA; also called huTNFR1-Fc; immobilized human TNFR1; not shown: Fc part not described
T3 sequence (looked up): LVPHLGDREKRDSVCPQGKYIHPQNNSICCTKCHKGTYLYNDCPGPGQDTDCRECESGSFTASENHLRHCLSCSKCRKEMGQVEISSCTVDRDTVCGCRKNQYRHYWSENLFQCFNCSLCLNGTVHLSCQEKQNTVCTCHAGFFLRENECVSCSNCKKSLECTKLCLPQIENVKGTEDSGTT
Experimental: Microtiter plates were coated with 100 μl of TNFFR1-Fc fusion protein (1 μg/ml in PBS) and incubated at 4° C. overnight.

[4] = molecular target: T1, TNFR1 on the surface of cells (HT1080, …); assay: flow cytometry on TNFR1-expressing HT1080 cells
Experimental: as §1

[5] = molecular target: T3, human TNFR1-Fc fusion protein; assay: ELISA, immobilized human TNFR1-Fc
Experimental: (§2) Microtiter plates were coated with 100 μl of TNFFR1-Fc fusion protein (1 μg/ml in PBS) and incubated at 4° C. overnight. The residual binding sites were blocked with 2% MPBS (skim milk in PBS, 200 μl per well) at room temperature for 2 hours and subsequently washed twice with PBS. 100 μl of the samples diluted in 2% MPBS were incubated at room temperature for 1 hour prior to the last incubation step with 100 μl of the HRP conjugated detection antibodies in 2% MPBS. Bound protein was detected with 100 μl TMB substrate solution, the HRP-reaction was stopped by the addition of 50 μl 1 M H2SO4 and the absorption at the wavelength of 450 nm was measured using the Infinite microtiter plate reader (TECAN, Maennedorf, Switzerland). Between each incubation step and in advance of the detection, the plates were washed three times with PBST and twice with PBS.

[6] = molecular target: T3, human TNFR1-Fc fusion protein; assay: QCM (Attana), real-time binding, one-to-one fit
Experimental: (§3) FIG. 36. […] Five concentrations between 128 nM and 4 nM were used to generate the kinetic data in b) and a one-to-one binding algorithm was employed for fitting.

[7] = molecular target: T3, human TNFR1-Fc fusion protein; assay: ELISA, human TNFR1-Fc (CHO-produced protein, Example 14)
Experimental: as §2

[8] = molecular target: T3, human TNFR1-Fc fusion protein; assay: ELISA, immobilized human TNFR1-Fc; remark: listed apart in the source
[9] = molecular target: T1, TNFR1 on the surface of cells (HT1080, …); assay: cell-based or functional assay; remark: listed apart in the source
[10] = molecular target: T1, TNFR1 on the surface of cells (HT1080, …); assay: cell-based or functional assay; remark: listed apart in the source
[11] = molecular target: T1, TNFR1 on the surface of cells (HT1080, …); assay: cell-based or functional assay; remark: listed apart in the source
[12] = molecular target: T3, human TNFR1-Fc fusion protein; assay: QCM (Attana), real-time binding, 128 nM to 4 nM, one-to-one fit
Experimental: as §3

T2 sequence (P07766 23-207): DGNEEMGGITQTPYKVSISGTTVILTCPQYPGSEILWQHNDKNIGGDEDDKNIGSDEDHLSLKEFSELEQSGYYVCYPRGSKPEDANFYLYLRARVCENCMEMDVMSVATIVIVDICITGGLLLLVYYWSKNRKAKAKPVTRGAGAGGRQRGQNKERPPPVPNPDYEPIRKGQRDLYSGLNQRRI

Row | Binder | Cytotxicity IC50 [1] | EC50 [2] | EC50 [3] | EC50 [4] | fold reduced binding affinity compared with Fab13.7 [5] | koff [6] | kon [6] | EC50 [7] | EC50 [8] | factor of increased inhibitory potential (IL-8 inhibition) compared to ATROSAB [9] | fold reduced bioactivity (IL-8 inhibition) compared to Fab13.7 [9] | IC50, Cell death induction [nM] (Kym-1 cells, 0.01 nM TNF) [10] | IC50, IL-6 [nM] (HeLa cells, 0.1 nM TNF) [10] | IC50, IL-8 [nM] (HT1080 cells, 0.1 nM TNF) [10] | IL-8 Inhibition IC50 [11] | Kd [12]
1 | B1 | 0.8 nM | 1.6 nM | 3.5 nM | 3.7 nM | – | – | – | – | – | – | – | – | – | – | – | –
2 | B2 | – | – | – | – | 2.1 fold | 0.000983 s⁻¹ | 369000 M⁻¹ s⁻¹ | 0.37 nM | 1.9 nM | 2.8 fold | 3.7 fold | 16.2 nM | 54.5 nM | 24.2 nM | 48 nM | 2.66 nM
